The assay addresses T1, human MICA on target cells (human, UniProt Q29983 24-383).
T1 sequence (looked up): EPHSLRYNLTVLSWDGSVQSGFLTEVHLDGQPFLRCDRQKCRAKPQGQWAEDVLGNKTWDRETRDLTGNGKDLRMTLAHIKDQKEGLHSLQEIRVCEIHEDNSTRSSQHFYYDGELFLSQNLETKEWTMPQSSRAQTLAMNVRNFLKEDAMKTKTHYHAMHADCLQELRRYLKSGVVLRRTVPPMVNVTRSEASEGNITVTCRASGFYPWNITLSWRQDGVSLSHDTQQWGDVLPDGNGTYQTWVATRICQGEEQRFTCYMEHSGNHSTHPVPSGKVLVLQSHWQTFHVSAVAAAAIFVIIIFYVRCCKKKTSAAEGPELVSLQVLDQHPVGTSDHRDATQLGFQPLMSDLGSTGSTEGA
Kind of assay: cell-based or functional assay.

B1: MICA/B CAR (chimeric antigen receptor with a MICA/B-binding scFV; version not stated at the assay) (scFv, V domains shown)
VH: QIQLVQSGPELKKPGETVKVSCKASGYMFTNYAMNWVKQAPEKGLKWMGWINTHTGDPTYADDFKGRIAFSLETSASTAYLQINNLKNEDTATYFCVRTYGNYAMDYWGQGTSVTVSS
VL: DIQMTQTTSSLSASLGDRVTISCSASQDISNYLNWYQQKPDGTVKLLIYDTSILHLGVPSRFSGSGSGTDYSLTISNLEPEDIATYYCQQYSKFPRTFGGGTTLEIK
In the case of B1, the “cytotoxicity of MICA/B CAR+ T cells against MICA+ Nalm6 cells, % Caspase 3/7+ target cells over E:T ratio, 4 h (EC50)” value is about 1.9 and the “cytotoxicity of MICA/B CAR+ iNK cells against P815 MICA+ cells, % Caspase 3/7+ target cells over E:T ratio, 4 h (EC50)” value is about 5.2.

Source of the values: US20210163622A1 (FATE THERAPEUTICS, published 2021).
